Measured values reported in US20220259298A1 (KYOTO UNIVERSITY, published 2022).
Read-outs that look alike come from different tables or passages of the source.

Key:
[1] = biological target: T1, N-terminal PA-tagged mouse USAG-1 (WISE) recombinant protein (mouse, UniProt Q9CQN4 24-206); assay: BLI (Octet), antibody immobilized on the biosensor, mouse USAG-1 at 10, 30, 100 nM, global fitting
T1 construct: The pull-downs used culture supernatant of Expi293F cells; also called PA-mUSAG-1 (WISE); purified full-length recombinant mouse USAG-1; not shown: PA tag at the N-terminal
T1 sequence (looked up): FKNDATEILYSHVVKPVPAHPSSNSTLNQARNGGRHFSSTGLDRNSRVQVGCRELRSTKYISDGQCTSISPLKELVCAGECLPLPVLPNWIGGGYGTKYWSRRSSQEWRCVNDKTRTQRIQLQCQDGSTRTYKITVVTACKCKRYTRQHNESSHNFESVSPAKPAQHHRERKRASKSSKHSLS
Method: For 8 out of the 9 antibodies grouped in Example 8, affinities (KD values) were determined by using the same Octet-based BLI method as in Example 8. […] The affinities were calculated by subjecting the obtained curves to global fitting with an analysis program attached to the Octet device.

[2] = biological target: T1, N-terminal PA-tagged mouse USAG-1 …; assay: cell-based or functional assay
[3] = biological target: T2, 15 amino acid peptide for epitope mapping RCVNDKTRTQRIQLQ (SEQ ID NO: 35) (human); assay: peptide array on cellulose membrane, HRP-conjugated anti-mouse antibody, ECL
T2 peptide: RCVNDKTRTQRIQLQ
Method: (§1) Briefly, 169 overlapping peptides of 15 amino acids were synthesized based on a human USAG-1 protein sequence (183 amino acid length) excluding a signal peptide by shifting the 15 amino acid sequence from the beginning by one amino acid to prepare a peptide library. The 169 kinds of peptides were bound onto a cellulose membrane to prepare a peptide array. […] After washing, an HRP-conjugated anti-mouse antibody (1/25000 dilution) was added as a secondary antibody, and ECL solution was used for color development.

[4] = biological target: T3, 15 amino acid peptide for epitope mapping EWRCVNDKTRTQRIQ (SEQ ID NO: 33) (human); assay: as above
T3 peptide: EWRCVNDKTRTQRIQ
Method: as §1

[5] = biological target: T4, 15 amino acid peptide for epitope mapping WRCVNDKTRTQRIQL (SEQ ID NO: 34) (human); assay: as above
T4 peptide: WRCVNDKTRTQRIQL
Method: as §1

[6] = biological target: T5, 15 amino acid peptide for epitope mapping VNDKTRTQRIQLQCQ (SEQ ID NO: 37) (human); assay: as above
T5 peptide: VNDKTRTQRIQLQCQ
Method: as §1

[7] = biological target: T6, 15 amino acid peptide for epitope mapping QEWRCVNDKTRTQRI (SEQ ID NO: 32) (human); assay: as above
T6 peptide: QEWRCVNDKTRTQRI
Method: as §1

[8] = biological target: T7, 15 amino acid peptide for epitope mapping CVNDKTRTQRIQLQC (SEQ ID NO: 36) (human); assay: as above
T7 peptide: CVNDKTRTQRIQLQC
Method: as §1

human USAG-1 protein [9] = biological target: T8, human USAG-1 protein (human, UniProt Q6X4U4 24-206); assay: solid-phase ELISA of the hybridoma clone on the immunizing antigen (E. coli-derived human USAG-1, R & D systems), paragraph 134
T8 construct: mature
T8 sequence (looked up): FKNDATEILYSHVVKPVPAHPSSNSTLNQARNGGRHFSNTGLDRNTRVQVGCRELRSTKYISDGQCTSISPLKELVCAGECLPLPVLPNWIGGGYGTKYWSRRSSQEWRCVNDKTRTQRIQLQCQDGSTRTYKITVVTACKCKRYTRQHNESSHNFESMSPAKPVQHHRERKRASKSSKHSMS

[10] = biological target: T9, human FLAG-tagged USAG-1 transiently forcibly expressed in HEK293 cells (human, UniProt Q6X4U4 24-206); assay: immunostaining of HEK293 cells transiently expressing human FLAG-tagged USAG-1
T9 construct: whole, on cells; Immunostaining of transfected cells; not shown: FLAG tag
T9 sequence (looked up): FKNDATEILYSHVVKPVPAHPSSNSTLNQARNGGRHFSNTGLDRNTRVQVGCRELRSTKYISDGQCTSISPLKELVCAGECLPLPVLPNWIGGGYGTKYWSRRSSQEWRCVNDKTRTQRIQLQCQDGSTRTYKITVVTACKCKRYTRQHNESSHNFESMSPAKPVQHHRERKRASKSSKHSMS

human USAG-1 protein [11] = biological target: T8, human USAG-1 protein; assay: solid-phase ELISA of the hybridoma clone on the immunizing antigen (E. coli-derived human USAG-1, R & D systems), paragraph 134; remark: listed apart in the source

B1: mouse anti-USAG-1 neutralizing antibody E (B103) (antibody, mouse IgG1, kappa, V domains shown)
VH: DVQLQESGPGLVKPSQSLSLTCSVTGYSITSGYYWNWIRQFPGNKLEWMGCISYDGSNNYNPSLKNRISITRDTSKNQFFLKLNSVTTEDTATYYCARGGLLWGQGTTLTVSS
VL: DIQMTQSPSSLSASLGERVSLTCRASQEISGYLSWLQQKPDGNIKRLIYAASTLDSGVPKRFSGSRSGSDYSLTISRLESEDFADYYCLQYASYPWTFGGGTKLEIKR
notes: Raised against baculovirus-derived rat USAG-1
Question: For B1, which Kd [1] is on record?
Answer: The Kd was 4.97 nM.

B2: mouse anti-USAG-1 neutralizing antibody C (B14) (antibody, V domains shown)
VH: EVQLQQSGPELVKPGASVKISCKASGYSFTGYYMNWVKQSPEKSLEWIGEINPTTGGTTYNQKFKAKATLTVDKSSSTAYMQLKSLTSEDSAVYYCARLHYDYDGVGYAMDYWGQGTSVTVSS
VL: DIVMTQSHKFMSTSVGDRVSITCKASQDVSTAVAWYQQKPGQSPKLLIYSASYRYTGVPARFTGSGSGTDFTFTISSVQAEDLAVYYCQQHYSTPPTFGGGTKLEIKR
notes: as for B1
Question: What does the source list for B2?
Answer: EC50 against the BMP signaling inhibition by USAG-1 (BMP ALP assay, C2C12 cells, BMP7) [2]: 0.298 µg/mL; EC50 against the Wnt signaling inhibition by USAG-1 (WNT reporter assay, luciferase) [2]: 4.73 µg/mL; Kd [1]: 4.21 nM

B3: mouse anti-USAG-1 neutralizing antibody A (E37) (antibody, mouse IgG1, kappa, V domains shown)
VH: QVQLQQSDAELVNPGASVKISCKVSGYTFTDHTIHWMKQRPEQGLEWIGYIYPGDGSTKYNEKFKGKATLTADKSSSTAYMQLNSLTSEDSAVYFCARTETYYGRIYYYAMDYWGQGTSVTVSS
VL: QIVLSQSPAILSASPGEKVTMTCRASSSVSYMYWYQQKPGSSPKPWIYATSNLASGVPIRFSGSGSGTSYSLTISRVEAEDAATYYCQQWSSNLTFGAGTKLELKR
Question: What does the source list for B3?
Answer: binding result [3]: binds; binding result [4]: binds; binding result [5]: binds; binding result [6]: binds; binding result [7]: binds; binding result [8]: binds; binding result (human USAG-1 protein [9]): binds; Kd [1]: 2.43 nM; binding result [10]: binds

B4: mouse anti-USAG-1 neutralizing antibody B (E57) (antibody, mouse IgG1, kappa, V domains shown)
VH: EVQLQQSGPELVKPGASVKISCKTSGYSFTGYYMSWVKQSPEKSLEWIGEINPTTGGSTYNQKFKAKATLTVDKSSSTAYMQLKSLTSEDSAVYYCAREGYYSGISYDAMDYWGQGTSVTVSS
VL: DIQMTQTTSSLSASLGDRVTISCRASQDISNYLSWYQQKPDGTVKLLIYYTSRLHSGVPSRFSGSGSGTDYSLTISNLEQEDIATYFCQQGNTLPRTFGGGTKLEIKR
Question: What does the source list for B4?
Answer: binding result (human USAG-1 protein [11]): binds; Kd [1]: 2.44 nM; binding result [10]: binds
